Here are results for six molecules from patent US20210238253A1 (GUANGDONG ZHAOTAI INVIVO BIOMEDICINE, published 2021).

The target in assay [1] is T1, hCD19-his (human CD19 recombinant protein, Pro20-Lys291, His tag at C-terminus) (human, UniProt P15391 20-291).
T1 construct: range 20-291; also called human CD19-His
T1 sequence (looked up): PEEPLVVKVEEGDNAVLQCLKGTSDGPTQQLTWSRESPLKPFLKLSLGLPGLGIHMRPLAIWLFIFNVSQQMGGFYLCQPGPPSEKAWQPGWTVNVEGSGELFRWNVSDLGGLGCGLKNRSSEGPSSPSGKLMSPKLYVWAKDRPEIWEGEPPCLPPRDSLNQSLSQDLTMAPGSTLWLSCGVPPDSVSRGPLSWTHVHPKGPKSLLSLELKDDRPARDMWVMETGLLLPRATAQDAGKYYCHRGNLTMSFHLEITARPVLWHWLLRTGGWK
Nature of the assay: ELISA, coated hCD19-His. On the procedure: The antibodies were screened by ELISA according to Example 2. Briefly, […] of hCD19-His (ACRO) were spread and incubated. The purified antibodies were serially diluted to bind the incubated antigen. The binding signal of each antibody could be detected with HRP-labeled goat anti-rat Fc antibody.
Graphpad Prism software was used to calculate the fitting data.

Assay [2] deals with T2, hVISTA-his (human, UniProt Q9H7M9 33-194).
T2 construct: Coated antigen of the specificity ELISA
T2 sequence (looked up): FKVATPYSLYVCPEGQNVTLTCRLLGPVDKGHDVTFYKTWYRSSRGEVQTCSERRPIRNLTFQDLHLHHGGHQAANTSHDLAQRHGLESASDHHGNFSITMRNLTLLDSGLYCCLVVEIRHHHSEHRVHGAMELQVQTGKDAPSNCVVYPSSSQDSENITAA
Nature of the assay: ELISA, coated antigen 0.5 µg/ml. As for the experimental part:
(§1) According to the method described in Example 4, 0.5 μg/ml of hCD19-His, hVISTA-his, hPD-L1, hCD40, h41BB and hLAG3 were spread and incubated respectively, and 2μg/ml of purified antibodies were added to bind the incubated antigen. The binding signal of each antibody could be detected with HRP-labeled goat anti-rat Fc antibody.

For assay [3], the target named is T3, hPD-L1 (human, UniProt Q9NZQ7 19-238, limits assumed).
T3 construct: Coated antigen of the specificity ELISA
Put plainly: ELISA, coated antigen 0.5 µg/ml. On the procedure: as §1
On the technique in general: In an ELISA, binding on a coated surface is turned into a signal by an enzyme label.

In assay [4] the target is T4, hCD40 (human, UniProt P25942 21-193).
T4 construct: Coated antigen of the specificity ELISA
Put plainly: ELISA, coated antigen 0.5 µg/ml. As for the experimental part: as §1

In assay [5] the target is T5, h41BB (human, UniProt Q07011 24-186).
T5 construct: Coated antigen of the specificity ELISA
Put plainly: ELISA, coated antigen 0.5 µg/ml. On the procedure:
as §1

Assay [6] concerns the target T6, hLAG3 (human, UniProt P18627 23-450, limits assumed).
T6 construct: Coated antigen of the specificity ELISA
T6 sequence (looked up): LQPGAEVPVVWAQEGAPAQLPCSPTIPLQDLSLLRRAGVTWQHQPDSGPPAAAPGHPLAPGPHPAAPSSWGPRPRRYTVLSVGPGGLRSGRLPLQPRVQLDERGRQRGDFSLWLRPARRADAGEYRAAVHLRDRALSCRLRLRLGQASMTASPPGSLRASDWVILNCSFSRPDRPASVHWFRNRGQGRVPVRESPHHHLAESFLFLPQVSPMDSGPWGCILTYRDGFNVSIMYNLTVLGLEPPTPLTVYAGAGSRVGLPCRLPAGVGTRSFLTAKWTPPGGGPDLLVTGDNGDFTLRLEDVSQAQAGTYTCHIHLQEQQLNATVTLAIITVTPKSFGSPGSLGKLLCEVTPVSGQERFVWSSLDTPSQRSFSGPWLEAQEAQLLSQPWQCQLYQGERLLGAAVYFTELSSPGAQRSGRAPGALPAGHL
Put plainly: ELISA, coated antigen 0.5 µg/ml. As for the experimental part: as §1

The target in assay [7] is T7, CD19 expressed by Nalm6 cells (UniProt P15391 20-556, limits assumed).
T7 construct: whole, on cells; Endogenous CD19 on tumor cell lines; also called Nalm6/GL; CD19 antigen on RAJI-GL and NALM6-GL tumor cells
T7 sequence (looked up): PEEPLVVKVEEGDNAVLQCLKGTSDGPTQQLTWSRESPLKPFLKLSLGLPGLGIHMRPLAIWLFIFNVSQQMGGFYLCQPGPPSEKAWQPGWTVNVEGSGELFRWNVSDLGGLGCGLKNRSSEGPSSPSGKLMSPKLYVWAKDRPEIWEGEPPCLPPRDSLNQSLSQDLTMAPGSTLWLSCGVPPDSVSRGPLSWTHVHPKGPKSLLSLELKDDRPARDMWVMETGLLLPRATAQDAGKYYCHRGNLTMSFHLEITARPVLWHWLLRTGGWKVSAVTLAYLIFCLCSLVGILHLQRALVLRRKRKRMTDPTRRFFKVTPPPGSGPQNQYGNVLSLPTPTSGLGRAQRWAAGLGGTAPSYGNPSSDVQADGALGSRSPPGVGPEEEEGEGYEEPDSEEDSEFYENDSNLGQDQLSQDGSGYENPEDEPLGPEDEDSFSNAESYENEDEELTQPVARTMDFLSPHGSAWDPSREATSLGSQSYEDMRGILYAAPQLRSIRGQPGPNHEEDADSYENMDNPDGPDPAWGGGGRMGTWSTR
Put plainly: flow cytometry on Nalm6 cells. As for the experimental part:
The CD19-expressing tumor cells Nalm6 in logarithmic growth phase were collected and resuspended in PBS at a cell density of 10⁵/well, 100 μl/well. The diluted CD19 antibodies were added into the well and incubated at 4° C. for 1 hour. The cells were washed three times with flow cytometry wash buffer. Anti-rat IgG-Alexa Fluor 647 (Abcam, Cat #ab150163) was added and incubated at 4° C. for 1 hour. The cells were washed three times with flow cytometry wash buffer. The samples were analyzed by flow cytometry. The results are shown in FIG. 3 and Table 4, as follows: […]
In general terms: A flow cytometer gives signals particle by particle.

Assay [8] has as its target T8, CD19 expressed by Nalm6 cells (UniProt P15391 20-556).
T8 chain: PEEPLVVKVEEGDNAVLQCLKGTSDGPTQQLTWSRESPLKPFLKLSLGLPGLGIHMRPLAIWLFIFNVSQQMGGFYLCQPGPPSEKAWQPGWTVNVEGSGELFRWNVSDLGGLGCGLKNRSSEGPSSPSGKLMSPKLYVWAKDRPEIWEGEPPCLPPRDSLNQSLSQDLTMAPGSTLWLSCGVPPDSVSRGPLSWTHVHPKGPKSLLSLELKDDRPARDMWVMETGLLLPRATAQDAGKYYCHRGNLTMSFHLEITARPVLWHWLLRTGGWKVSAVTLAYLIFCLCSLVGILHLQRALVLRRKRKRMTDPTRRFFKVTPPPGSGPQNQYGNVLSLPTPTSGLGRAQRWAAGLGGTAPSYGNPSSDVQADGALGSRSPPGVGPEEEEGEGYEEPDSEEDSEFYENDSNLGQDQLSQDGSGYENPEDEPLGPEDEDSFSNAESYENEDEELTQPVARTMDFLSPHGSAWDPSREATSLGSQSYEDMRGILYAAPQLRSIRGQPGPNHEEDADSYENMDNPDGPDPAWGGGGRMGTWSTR
Put plainly: flow cytometry.

T3 sequence (Q9NZQ7 19-238 limits assumed): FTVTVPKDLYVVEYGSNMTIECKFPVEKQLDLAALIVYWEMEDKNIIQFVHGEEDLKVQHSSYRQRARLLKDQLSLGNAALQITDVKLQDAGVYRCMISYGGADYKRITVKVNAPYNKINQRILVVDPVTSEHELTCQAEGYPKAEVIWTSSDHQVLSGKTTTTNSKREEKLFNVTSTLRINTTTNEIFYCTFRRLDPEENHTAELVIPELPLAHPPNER
T4 sequence (P25942 21-193 limits assumed): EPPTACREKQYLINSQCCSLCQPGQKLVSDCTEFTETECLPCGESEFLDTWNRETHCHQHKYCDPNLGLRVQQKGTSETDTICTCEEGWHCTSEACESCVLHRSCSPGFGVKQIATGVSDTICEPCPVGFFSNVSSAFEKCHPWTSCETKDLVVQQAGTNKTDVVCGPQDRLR

B1: 52F9 (hybridoma antibody) (antibody, V domains shown)
VH: QVQLVESGGGVVQAGRSLRLSCAASGFTFSNYGIHWVRQAPGKGLEWVGVIWHDGSIKNYADFVKGRFTISRDNSEDTLYLQMNSLRAEDTAVYYCAREQGNYYGWGSYKAFDIWGQGTMVTVSS
VL: DIQLTQSPSFLSVFVGDRVTITCRASQGISNYLAWYQQKPGKAPELLLYATSTLQSGVPSRLSGSGSGTEFTLTLSSLQPEDFATYYCQQVYSFPYTFGQGTKLEIK
notes: hybridoma mAb from H2L2 mouse (human variable, rat constant regions)
Broadly, the EC50 is the concentration at which the effect is half-maximal. For B1, the EC50 was determined as 0.0592 µg/mL in assay [1] and 1.87 µg/mL in assay [8]. Moreover, the binding result in assay [2], in assay [3], in assay [4], in assay [5] and in assay [6] was “no binding (tested: 2 µg/ml)” in each case. For the same molecule, the “Maximum mean fluorescence intensity (30 µg/ml)” value in assay [7] is 5160.

B2: 31A2 (hybridoma antibody) (antibody, V domains shown)
VH: QVQLVESGGGVVQPGRSLRLSCAASGFTFSRHGMHWVRQAPGKGLEWVAVIWYDGSNKYYVDSVKGRFTISRDNSKNTLDLQMNSLRAEDTAVYYCARRSITWDGAFDIWGQGTMVTVSS
VL: DIQMTQSPSTLSASVGDRVTISCRASQSISSWLAWYQQKPGKAPKLLIYKASSLESGVPSRFSGSGSGTEFTLTISSLQPDDFATYYCQQYNSAYTFGQGTKLEIK
notes: as for B1
For the molecule B2, the EC50 amounted to 0.0249 µg/mL in assay [1] and 22.9 µg/mL in assay [8]. In addition, the binding result in assay [2], in assay [3], in assay [4], in assay [5] and in assay [6] was “no binding (tested: 2 µg/ml)” in each case. In addition, the “Maximum mean fluorescence intensity (30 µg/ml)” value in assay [7] was 24700.

B3: 17B6 (hybridoma antibody) (antibody, V domains shown)
VH: QVQLVESGGGVVQPGRSLRLSCEASGFTFSRHGMHWVRQAPGKGLEWVAVIFYDGSQNYYADSVRGRFTISRDNSKNTLSLQMDSLRAEDTAVYYCARRSITWNGGFDIWGQGTMVTVSP
VL: DIQMTQSPSTLSASVGDRVTITCRASQSISSWLAWYQQKPGKAPKLLIYKASSLESGVPSRFSGSGSGTEFTLAISSLQPDDFATYYCQQYNRFYTFGQGTKLEIK
notes: as for B1
Turning to B3, the EC50 came out at 0.176 µg/mL in assay [1] and 36.9 µg/mL in assay [8]. Moreover, the binding result in assay [2], in assay [3], in assay [4], in assay [5] and in assay [6] was “no binding (tested: 2 µg/ml)” each time. Besides, the “Maximum mean fluorescence intensity (30 µg/ml)” value in assay [7] is 25500.

B4: 27F11 (hybridoma antibody) (antibody, V domains shown)
VH: QVQLVESGGGVVQPGRSLRLSCAASGFTFSRHGMHWVRQAPGKGLEWVAVIYYDGSNKYYVDSVKGRFTISRDNSKNTLDLQMNSLRAEDTAVYYCARRSITWNGAFDIWGQGTMVTVSS
VL: DIQMTQSPSTLSASVGDRVTISCRASQSISSWLAWYQQKPGKAPKLLIYKASSLESGVPSRFSGSGSGTEFTLTISSLQPDDFATYYCQQYNSAYTFGQGTKLEIK
notes: as for B1
Consider B4, for which the EC50 in assay [1] was determined as 0.0672 µg/mL; in assay [8] it was 57.3 µg/mL. Also, the binding result in assay [2], in assay [3], in assay [4], in assay [5] and in assay [6] was “no binding (tested: 2 µg/ml)” each time. Also, in assay [7], the “Maximum mean fluorescence intensity (30 µg/ml)” value came out at 30000.

B5: 11H8 (hybridoma antibody) (antibody, V domains shown)
VH: QVQLVESGGGVVQPGRSLRLSCAASGFTFSRHGMHWVRQAPGKGLEWVAVIWYDGSNQYYVDSVKGRFTISRDNSKNTLDLQMNSLRVEDTAVYYCARRSITWYGGFDIWGQGTMVTVSS
VL: DIQMTQSPSTLSASVGDRVTITCRASQSISSWLAWYQQKPGKAPKLLIYKASSLESGVPPRFSGSGSGTEFTLTISSLQPDDFATYYCQQYNSAYTFGQGTKLEIK
notes: as for B1
On to B5, for which the EC50 in assay [1] amounted to 0.0301 µg/mL; in assay [8], 11.8 µg/mL. Also, the binding result in assay [2], in assay [3], in assay [4], in assay [5] and in assay [6] was “no binding (tested: 2 µg/ml)” throughout. Moreover, the “Maximum mean fluorescence intensity (30 µg/ml)” value in assay [7] stood at 23300.

B6: 15F2 (hybridoma antibody) (antibody, V domains shown)
VH: QVQLVESGGGVVQPGRSLRLSCAASGFTFSRHGMHWVRQAPGKGLEWVAVIWYDGSNKYYVDSVKGRFTISRDNSKNTLDLQMNSLRAEDTAVYYCARRSITWDGAFDIWGQGTMVTVSS
VL: DIQMTQSPSTLSASVGDRVTVTCRASQSIRSWLAWYQQKPGKAPKLLIYKASSLESGVPSRFSGSGSGTEFTLTISSLQPDDFATYYCQQYNSAYTFGQGTKLEIK
notes: as for B1
Consider B6, for which the EC50 in assay [1] is 0.0287 µg/mL; in assay [8] it was 24.6 µg/mL. The binding result in assay [2], in assay [3], in assay [4], in assay [5] and in assay [6] was “no binding (tested: 2 µg/ml)” each time. For the same molecule, in assay [7], the “Maximum mean fluorescence intensity (30 µg/ml)” value turned out to be 21700.
